# Experimental data taken from article PMC9482650, “Quantitative fragmentomics allow affinity mapping of interactomes” (Nature Communications, 2022).
# T1: HTRA4, P83105
# T1 sequence (P83105 378-476, limits assumed, looked up): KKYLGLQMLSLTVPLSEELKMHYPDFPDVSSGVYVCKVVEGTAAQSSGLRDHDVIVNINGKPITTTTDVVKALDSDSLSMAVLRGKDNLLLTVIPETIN
# T2: MPDZ_10, O75970
# T2 sequence (O75970 1624-1722, limits assumed, looked up): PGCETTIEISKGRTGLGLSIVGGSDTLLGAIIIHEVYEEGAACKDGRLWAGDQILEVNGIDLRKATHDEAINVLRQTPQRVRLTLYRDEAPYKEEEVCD
# T3: TIAM2, Q8IVF5
# T3 sequence (Q8IVF5 885-986, limits assumed, looked up): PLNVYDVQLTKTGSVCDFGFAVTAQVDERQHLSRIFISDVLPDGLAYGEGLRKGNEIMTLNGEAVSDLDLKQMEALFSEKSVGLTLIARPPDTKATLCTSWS
# T4: NHERF3_1, Q5T2W1
# T4 sequence (Q5T2W1 4-100, limits assumed, looked up): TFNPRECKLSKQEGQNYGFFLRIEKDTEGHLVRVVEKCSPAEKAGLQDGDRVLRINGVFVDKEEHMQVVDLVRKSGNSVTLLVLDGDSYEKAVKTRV
# T5: DLG3_2, Q92796
# T5 sequence (Q92796 221-321, limits assumed, looked up): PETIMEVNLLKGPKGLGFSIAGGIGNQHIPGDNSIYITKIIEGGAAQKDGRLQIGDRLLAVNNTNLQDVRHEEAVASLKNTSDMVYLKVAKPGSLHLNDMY
# T6: SNTG2, Q9NY99
# T6 sequence (Q9NY99 68-166, limits assumed, looked up): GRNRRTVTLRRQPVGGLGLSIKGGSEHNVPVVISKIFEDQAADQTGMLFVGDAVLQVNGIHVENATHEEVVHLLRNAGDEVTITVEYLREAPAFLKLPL
# T7: SNTA1, Q13424
# T7 sequence (Q13424 82-180, limits assumed, looked up): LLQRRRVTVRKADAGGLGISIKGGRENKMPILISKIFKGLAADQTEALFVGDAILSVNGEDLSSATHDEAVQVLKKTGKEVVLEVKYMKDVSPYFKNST
# T8: RAPGEF6, Q8TEU7
# T8 sequence (Q8TEU7 525-625, limits assumed, looked up): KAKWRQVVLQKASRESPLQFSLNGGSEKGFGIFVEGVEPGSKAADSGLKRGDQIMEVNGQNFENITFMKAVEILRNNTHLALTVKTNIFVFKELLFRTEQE
# T9: SNTG1, Q9NSN8
# T9 sequence (Q9NSN8 52-150, limits assumed, looked up): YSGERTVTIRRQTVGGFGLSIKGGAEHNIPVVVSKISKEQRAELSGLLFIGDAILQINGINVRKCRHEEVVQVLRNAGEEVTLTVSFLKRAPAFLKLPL
# T10: DFNB31_1, Q9P202
# T10 sequence (Q9P202 135-233, limits assumed, looked up): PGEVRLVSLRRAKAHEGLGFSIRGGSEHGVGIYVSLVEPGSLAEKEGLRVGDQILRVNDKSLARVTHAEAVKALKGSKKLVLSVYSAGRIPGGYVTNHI
# T11: LIN7B, Q9HAP6
# T11 sequence (Q9HAP6 88-185, limits assumed, looked up): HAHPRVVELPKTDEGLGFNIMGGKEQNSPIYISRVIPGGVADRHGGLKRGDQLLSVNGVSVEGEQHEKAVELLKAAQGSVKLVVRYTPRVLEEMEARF
# Columns and labels:
# Experiment in all cases: holdup assay
# Parameters in all cases: key: below the threshold = too weak to quantify, mostly under pKd 3.1 to 4
# Conditions in all cases: plain residues with an end cap or a label only (N-terminal biotin on a linker: ado-ado)
# [1] = molecular target: DLG4_3, P78352
# Chain of DLG4_3, P78352 (P78352 306-403): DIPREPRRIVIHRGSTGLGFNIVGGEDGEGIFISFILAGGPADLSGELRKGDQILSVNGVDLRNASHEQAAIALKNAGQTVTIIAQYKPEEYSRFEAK
# [2] = molecular target: T1, HTRA4, P83105
# [3] = molecular target: T2, MPDZ_10, O75970
# [4] = molecular target: T3, TIAM2, Q8IVF5
# [5] = molecular target: LIMK2, P53671
# Chain of LIMK2, P53671 (P53671 143-248): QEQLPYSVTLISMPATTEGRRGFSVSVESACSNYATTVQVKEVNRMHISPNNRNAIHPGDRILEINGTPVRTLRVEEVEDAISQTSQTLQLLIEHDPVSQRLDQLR
# [6] = molecular target: T4, NHERF3_1, Q5T2W1
# [7] = molecular target: DLG5_1, Q8TDM6
# Chain of DLG5_1, Q8TDM6 (Q8TDM6 617-713): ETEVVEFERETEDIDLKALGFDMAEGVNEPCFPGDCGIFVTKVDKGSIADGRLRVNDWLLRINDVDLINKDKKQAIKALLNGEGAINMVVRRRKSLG
# [8] = molecular target: PDLIM1, O00151
# Chain of PDLIM1, O00151 (O00151 1-87): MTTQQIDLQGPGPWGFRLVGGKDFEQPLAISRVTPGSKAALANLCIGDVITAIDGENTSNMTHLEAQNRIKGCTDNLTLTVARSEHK
# [9] = molecular target: Inadl_8, Q8NI35
# Chain of Inadl_8, Q8NI35 (Q8NI35 1425-1530): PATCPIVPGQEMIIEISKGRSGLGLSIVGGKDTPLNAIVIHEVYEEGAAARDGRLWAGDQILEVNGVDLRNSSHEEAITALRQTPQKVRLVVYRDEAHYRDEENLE
# [10] = molecular target: IL16_4, Q14005
# Chain of IL16_4, Q14005 (Q14005 1229-1329): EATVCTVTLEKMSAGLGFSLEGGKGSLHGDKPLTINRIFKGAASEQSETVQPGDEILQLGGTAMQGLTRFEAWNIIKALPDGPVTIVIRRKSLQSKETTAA
# [11] = molecular target: GORASP2, Q9H8Y8
# [12] = molecular target: T5, DLG3_2, Q92796
# [13] = molecular target: GRIP2_5, Q9C0E4
# Chain of GRIP2_5, Q9C0E4 (Q9C0E4 544-642): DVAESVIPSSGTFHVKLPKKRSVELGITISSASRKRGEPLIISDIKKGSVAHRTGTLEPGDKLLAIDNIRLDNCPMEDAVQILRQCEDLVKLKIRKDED
# [14] = molecular target: SCRIB_1, Q14160
# Chain of SCRIB_1, Q14160 (Q14160 718-814): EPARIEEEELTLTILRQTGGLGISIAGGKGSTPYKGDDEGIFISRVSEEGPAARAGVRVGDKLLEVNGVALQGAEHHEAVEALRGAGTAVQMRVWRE
# [15] = molecular target: T6, SNTG2, Q9NY99
# [16] = molecular target: IL16_1, Q14005
# Chain of IL16_1, Q14005 (Q14005 210-306): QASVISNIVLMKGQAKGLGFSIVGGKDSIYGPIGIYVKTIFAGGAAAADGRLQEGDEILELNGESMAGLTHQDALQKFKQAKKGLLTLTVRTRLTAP
# [17] = molecular target: T7, SNTA1, Q13424
# [18] = molecular target: FRMPD2_2, Q68DX3
# Chain of FRMPD2_2, Q68DX3 (Q68DX3 944-1038): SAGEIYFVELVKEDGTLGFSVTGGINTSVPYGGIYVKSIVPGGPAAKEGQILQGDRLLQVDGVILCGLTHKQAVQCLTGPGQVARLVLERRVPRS
# [19] = molecular target: T8, RAPGEF6, Q8TEU7
# [20] = molecular target: PARD3_3, Q8TEW0
# Chain of PARD3_3, Q8TEW0 (Q8TEW0 582-685): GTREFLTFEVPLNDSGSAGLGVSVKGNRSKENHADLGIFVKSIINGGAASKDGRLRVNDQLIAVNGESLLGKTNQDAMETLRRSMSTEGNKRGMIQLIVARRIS
# [21] = molecular target: T9, SNTG1, Q9NSN8
# [22] = molecular target: GOPC, Q9HD26
# [23] = molecular target: CASK, O14936
# Chain of CASK, O14936 (O14936 487-570): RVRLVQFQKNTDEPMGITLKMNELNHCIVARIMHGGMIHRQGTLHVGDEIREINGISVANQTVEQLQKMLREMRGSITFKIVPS
# [24] = molecular target: T10, DFNB31_1, Q9P202
# [25] = molecular target: T11, LIN7B, Q9HAP6
# [26] = molecular target: NOS1, P29475
# Chain of NOS1, P29475 (P29475 9-101): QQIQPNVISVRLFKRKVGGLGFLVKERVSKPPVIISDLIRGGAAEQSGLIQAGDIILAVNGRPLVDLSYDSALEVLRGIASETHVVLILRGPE
pKd [1],pKd [2],pKd [3],pKd [4],pKd [5],pKd [6],pKd [7],pKd [8],pKd [9],pKd [10],pKd [11],pKd [12],pKd [13],pKd [14],pKd [15],pKd [16],pKd [17],pKd [18],pKd [19],pKd [20],Binder,further results
below the threshold,4,3.67,below the threshold,below the threshold,below the threshold,below the threshold,below the threshold,4.18,3.53,below the threshold,3.65,below the threshold,below the threshold,below the threshold,below the threshold,3.52,below the threshold,below the threshold,below the threshold,"LRSPRTPSEV [OR10G3, Q8NGC4]",pKd [21]: below the threshold; pKd [22]: below the threshold; pKd [23]: 3.61; pKd [24]: below the threshold; pKd [25]: 3.85; pKd [26]: 3.76
4.44,4.08,below the threshold,below the threshold,below the threshold,4.31,below the threshold,below the threshold,4.06,below the threshold,5.13,5.44,below the threshold,4.57,4.13,below the threshold,4.41,3.74,below the threshold,below the threshold,"RRRESYSTTV [EVI5, O60447]",pKd [21]: 3.63; pKd [22]: 4.36; pKd [23]: below the threshold; pKd [24]: 3.52; pKd [25]: below the threshold; pKd [26]: below the threshold
